Assay [1] deals with SARS-CoV-2 spike receptor-binding domain (RBD) (SARS-CoV-2, Wuhan-Hu-1, UniProt P0DTC2).
In assay [2] the target is T1, SARS-CoV-2 spike receptor-binding domain (SARS-CoV-2, Wuhan-Hu-1, UniProt P0DTC2).
T1 construct: also called RBD; SARS-CoV-2 RBD
Briefly: SPR; Carterra LSA array, HC200M chip; IgG captured on immobilised anti-human Fc; RBD as analyte, 7-point dilution series 300 nM to 411 pM in 1x HBSTE with 0.5 mg/mL BSA; association 5 min, dissociation 11 min; one-site binding model; two independent measurements. The following applies: both partners purified. On the technique in general: SPR reads the build-up and loss of mass on a sensor chip optically.

Assay [3] has as its target SARS-CoV-2 spike protein receptor-binding domain (RBD) (SARS-CoV-2, UniProt P0DTC2). Nature of the assay: cell-based or functional assay.

Numbering of substitutions follows the chain as printed. Values joined by “and” are separate entries in the source; they are usually repeats but may differ in a detail not shown here. Equal entries are not always repeated.

B1: A2 (antibody, V domains shown)
VH: QVQLVESGAEVKKPGASVKVSCKVSGYSFTDHSIHWVRQAPGKGLEWMGGINPYTGDTIYAQKFQGRVTMTEDTSTDTAYMELSSLKSEDTAVYYCARDGYCSGGSCYSFSGYGMDVWGQGTTVTVS
VL: DIQMTQSPSSVSASVGDRVTITCRASQDIGNHLAWYQQKPGKAPKLLIYASSNLASGVPSRFSGSGSGTDFTLTISSLQPEDFANYYCHQYTTYPWTFGGGTKVEIK
B1: the binding result in assay [1] is listed as “binds”.

B2: H7 (antibody, V domains shown)
VH: EVQLVQSGAEVKKPGASVKVSCKVSGYSFTDHSIHWVRQAPGKGLEWMGGINPYTGDTIYAQKFQGRVTMTEDTSTDTAYMELSSLKSEDTAVYYCARDGYDFWSGSYGMDVWGQGAQVTVS
VL: B1 VL with A50G, S51V, N53E, L54R, A55P, T92A, G100D
For B2, the binding result in assay [1] is reported as “binds”.

B3: G9 (antibody, V domains shown)
VH: QVQLVQSGAEVKKPGASVKVSCKVSGYSFTDHSIHWVRQAPGKGLEWMGGINPYTGDTIYAQKFQGRVTMTEDTSTDTAYMELSSLKSEDTAVYYCARDGYGDYRGLYGMDVWGRGTTVTVSS
VL: B1 VL with T92A
On to B3, for which the binding result in assay [1] is recorded as “binds”.

B4: H9 (antibody, V domains shown)
VH: EVQLVESGAEVKKPGASVKVSCKVSGYSFTDHSIHWVRQAPGKGLEWMGGINPYTGDTIYAQKFQGRVTMTEDTSTDTAYMELSSLKSEDTAVYYCARDAYSGSYPYYYYGMDVWGQGTTVTVSS
VL: B1 VL with D28N, G30D, N31T, H32F, T92A, G100D
Regarding B4, the binding result in assay [1] is “binds”.

B5: E4 (antibody, V domains shown)
VH: B3 VH with G102D, D103F, Y104W, R105S, L107S, R115Q, T118L
VL: B1 VL with T92A
As for B5, the binding result in assay [1] is given as “binds”.

B6: H5 (antibody, V domains shown)
VH: B4 VH with E6Q, R38H, A100G, S102Y, Y105G, P106T
VL: DIQMTQSPSSVSASVGDRVTITCRASQSISTYLAWYQQKPGKAPKLLIYDASNRATGVPSRFSGSGSGTDFTLTISSLQPEDFANYYCLQYHNYPWTFGGGTKVEIK
For the molecule B6, the binding result in assay [1] is listed as “binds”.

B7: #41 (antibody, V domains shown)
VH: QVQLVQSGAEVKKPGASVKVSCKVSGYTSPATIHWVRQAPGKGLEWMGGISPYKGDTIYAQKFQGRVTMTEDTSTDTAYMELSSLKSEDTAVYYCAKDSYYYDSSGSGLGGGFDYWGQGTLVTVSS
VL: B6 VL with Q27R, S28D, T31S, D50G, N53T, T56S, H92S, N93I
For the molecule B7, the dissociation constant (Kd) (usually the concentration at which binding is half-saturated) in assay [2] is 0.257 nM and 0.333 nM.

B8: #41 (antibody, V domains shown)
VH: B7 VH
VL: B6 VL with Q27R, S28D, T31S, D50G, N53T, T56S, H92S, N93I
Regarding B8, the “SARS-CoV-2 pseudovirus IC50 (neutralisation, HeLa-hACE2 cells); pair blocked: ACE2 with RBD” value in assay [3] was 3.7 ng/mL.

Values taken from paper PMC8786865 (Nature Communications, 2022).
